According to patent publication US20220119534A1 (DRAGONFLY THERAPEUTICS, published 2022):
Where “and” joins values, the source holds several entries; their conditions need not be identical. Equal values may be shown once. Blank lines part the entries; values can stand above or below the binder they belong to.

Legend:
[1] = target: T1, mFc-hNKG2D (human, UniProt P26718 73-216); test: SPR Biacore 8K 37 C; mFc-hNKG2D captured on anti-mFc chip, TriNKET as analyte; 1:1 kinetic fit; after 4 wks 40 C in CST pH 7.0, n=3
T1 construct: extracellular domain; Made in house (Dragonfly Tx); the order of tag and ECD follows the name mFc-hNKG2D; also called mFc-tagged human NKG2D; not shown: mouse Fc tag
T1 sequence (looked up): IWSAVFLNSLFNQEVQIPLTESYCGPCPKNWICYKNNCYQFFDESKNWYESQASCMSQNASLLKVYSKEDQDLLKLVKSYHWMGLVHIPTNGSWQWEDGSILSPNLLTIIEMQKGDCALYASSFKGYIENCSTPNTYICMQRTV

[2] = target: T1, mFc-hNKG2D; test: SPR Biacore 8K 37 C; mFc-hNKG2D captured on anti-mFc chip, TriNKET as analyte; 1:1 kinetic fit; control, n=3
[3] = target: T1, mFc-hNKG2D; test: SPR Biacore 8K 37 C; mFc-hNKG2D captured on anti-mFc chip, TriNKET as analyte; 1:1 kinetic fit; un-oxidized control
[4] = target: T1, mFc-hNKG2D; test: SPR Biacore 8K 37 C; mFc-hNKG2D captured on anti-mFc chip, TriNKET as analyte; steady state fit; after 2 wks 40 C at pH 5.0
[5] = target: T1, mFc-hNKG2D; test: SPR Biacore 8K 37 C; mFc-hNKG2D captured on anti-mFc chip, TriNKET as analyte; kinetics fit; average of 4
[6] = target: T2, mFc-hNKG2D (human, UniProt P26718 73-216); test: SPR, 37 C, mFc-hNKG2D captured, steady state fit; average
T2 construct: extracellular domain; Recombinant mFc-tagged NKG2D dimer, made in house; also called human NKG2D; not shown: mouse Fc tag
T2 sequence (looked up): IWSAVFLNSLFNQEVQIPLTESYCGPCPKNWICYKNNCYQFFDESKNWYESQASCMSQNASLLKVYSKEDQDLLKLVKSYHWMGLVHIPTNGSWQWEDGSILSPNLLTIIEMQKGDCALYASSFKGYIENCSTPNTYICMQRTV

[7] = target: T3, Human CD16b (human, UniProt O75015 17-200, limits assumed, biotinylated); test: SPR, steady state fit; average for AB0192
T3 construct: Bought recombinant receptor; also called hFcγRIIIb
T3 sequence (O75015 17-200 limits assumed): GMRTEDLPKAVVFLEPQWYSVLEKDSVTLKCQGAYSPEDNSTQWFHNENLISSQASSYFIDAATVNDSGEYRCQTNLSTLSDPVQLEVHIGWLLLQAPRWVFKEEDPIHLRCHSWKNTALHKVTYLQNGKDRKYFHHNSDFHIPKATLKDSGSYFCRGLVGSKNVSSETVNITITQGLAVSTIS

[8] = target: T4, Human CLEC12A-His (human, UniProt Q5QGZ9 65-265); test: SPR, hCLEC12A (K244) WT
T4 construct: Recombinant soluble protein made in house; also called hCLEC12A-His; hCLEC12A; not shown: His tag
T4 sequence: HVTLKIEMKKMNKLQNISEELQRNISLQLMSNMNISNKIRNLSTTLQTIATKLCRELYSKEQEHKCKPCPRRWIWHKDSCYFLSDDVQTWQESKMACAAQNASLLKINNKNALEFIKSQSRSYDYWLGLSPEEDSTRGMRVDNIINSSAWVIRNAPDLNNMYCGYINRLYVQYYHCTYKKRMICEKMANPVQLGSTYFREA

[9] = target: T5, Human CLEC12A-His (recombinant, K244 WT) (human, UniProt Q5QGZ9 65-265); test: SPR, two-state fit; after forced oxidation
T5 construct: Made in house (Dragonfly Tx); also called hCLEC12A; hCLEC12A-His; not shown: His tag
T5 sequence: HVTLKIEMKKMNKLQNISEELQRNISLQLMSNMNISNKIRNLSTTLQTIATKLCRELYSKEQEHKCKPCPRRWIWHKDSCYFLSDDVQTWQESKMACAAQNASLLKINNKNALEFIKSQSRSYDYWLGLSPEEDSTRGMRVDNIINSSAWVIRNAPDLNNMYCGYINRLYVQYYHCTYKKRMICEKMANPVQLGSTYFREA

[10] = target: T6, Human CD16a V158 (FcγRIIIa V158) (human, UniProt P08637 17-208, biotinylated); test: SPR 25C, biotinylated CD16a V158 captured
T6 construct: Bought recombinant receptor; also called hCD16aV; hFcγRIIIa V158
T6 sequence (P08637 17-208 F176V limits assumed): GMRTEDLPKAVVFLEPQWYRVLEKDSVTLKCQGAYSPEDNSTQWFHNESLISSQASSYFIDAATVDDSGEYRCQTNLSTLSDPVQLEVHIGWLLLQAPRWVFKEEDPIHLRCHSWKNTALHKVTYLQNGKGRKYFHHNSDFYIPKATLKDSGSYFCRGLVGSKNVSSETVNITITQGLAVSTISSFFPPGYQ

[11] = target: T5, Human CLEC12A-His (recombinant, K244 WT); test: SPR, two-state fit (kd1); control sample
[12] = target: T5, Human CLEC12A-His (recombinant, K244 WT); test: SPR, two-state fit (ka1); control sample
[13] = target: T7, Human CD16b (FcγRIIIb) (human, UniProt O75015 17-200, limits assumed, biotinylated); test: SPR, summary of FcγR affinities (n = 3)
T7 construct: Bought recombinant receptor; also called hFcγRIIIb; CD16b (FcγR3b)
T7 sequence (O75015 17-200 limits assumed): as the sequence (O75015 17-200 limits assumed) above

[14] = target: T8, Cynomolgus CD16 (FcγRIII) (cynomolgus monkey, UniProt Q8SPW2 17-208, biotinylated); test: SPR, summary of FcγR affinities (n = 3)
T8 construct: Bought recombinant receptor; also called cFcγRIII; Cyno FcγRIII
T8 sequence (Q8SPW2 17-208 limits assumed): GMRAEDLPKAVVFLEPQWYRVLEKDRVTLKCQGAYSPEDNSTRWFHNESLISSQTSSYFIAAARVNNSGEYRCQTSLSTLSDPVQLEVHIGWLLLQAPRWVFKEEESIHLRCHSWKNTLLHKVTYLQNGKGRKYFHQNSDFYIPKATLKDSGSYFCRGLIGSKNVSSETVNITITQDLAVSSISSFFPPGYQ

[15] = target: T9, Cynomolgus CD64 (FcγRI) (cynomolgus monkey, UniProt A0A2K5U901 33-309, Biotinylated and captured on the CAP chip (p-1094); the biotin site is not stated.); test: SPR, summary of FcγR affinities (n = 3)
T9 construct: Bought recombinant receptor; also called cFcγRI; Cynomolgus FcγRI; not shown: The vendor's biotinylation and purification tag (ACRO FCA-C82E8)
T9 sequence (A0A2K5U901 entry or part of it limits assumed): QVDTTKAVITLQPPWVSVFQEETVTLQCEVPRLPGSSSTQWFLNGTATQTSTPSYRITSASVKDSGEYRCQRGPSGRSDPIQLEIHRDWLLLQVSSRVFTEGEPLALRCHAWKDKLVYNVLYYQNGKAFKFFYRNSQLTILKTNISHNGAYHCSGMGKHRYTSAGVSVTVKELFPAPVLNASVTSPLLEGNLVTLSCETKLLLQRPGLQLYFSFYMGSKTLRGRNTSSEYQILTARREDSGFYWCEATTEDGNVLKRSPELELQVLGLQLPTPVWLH

[16] = target: T5, Human CLEC12A-His (recombinant, K244 WT); test: SPR, two-state fit (kd1); after pH 8, 40C, 2 wks
[17] = target: T10, mFc-hNKG2D (recombinant mFc-tagged human NKG2D dimer) (human, UniProt P26718 73-216); test: SPR; after pH 8, 40C, 2 wks (n = 2)
T10 construct: extracellular domain; Made in house; not shown: mouse Fc tag
T10 sequence (looked up): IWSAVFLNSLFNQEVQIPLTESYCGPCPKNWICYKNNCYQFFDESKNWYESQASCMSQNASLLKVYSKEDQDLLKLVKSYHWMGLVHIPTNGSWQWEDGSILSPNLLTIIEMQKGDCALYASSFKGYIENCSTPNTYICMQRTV

Kd [1]: 0.708 µM
koff [1]: 0.14 s⁻¹
kon [1]: 198000 M⁻¹ s⁻¹
Kd [2]: 0.714 µM
koff [2]: 0.146 s⁻¹
kon [2]: 206000 M⁻¹ s⁻¹
Kd [3]: 0.75 µM
koff [3]: 0.107 s⁻¹
kon [3]: 143000 M⁻¹ s⁻¹
Kd [4]: 0.677 µM
Kd [5]: 0.721 µM
B1: F3'-1602 TriNKET (bispecific antibody, human IgG1, kappa)
chain: QLQLQESGPGLVKPSETLSLTCTVSGFSLTNYGLHWIRQPPGKCLEWIGVIWSGGKTDYNPSLKSRVTISKDTSKNQFSLKLSSVQAADTAVYYCAKYDYDDSLDYWGQGTLVTVSSGGGGSGGGGSGGGGSGGGGSDIQMTQSPSSLSASVGDRVTITCHASQNINFWLSWYQQKPGKAPKLLIYEASNLHTGVPSRFSGSGSGTRFTLTISSLQPEDIATYYCQQSHSYPLTFGCGTKLEIKGSDKTHTCPPCPAPELLGGPSVFLFPPKPKDTLMISRTPEVTCVVVDVSHEDPEVKFNWYVDGVEVHNAKTKPREEQYNSTYRVVSVLTVLHQDWLNGKEYKCKVSNKALPAPIEKTISKAKGQPREPRVYTLPPCRDELTKNQVSLTCLVKGFYPSDIAVEWESNGQPENNYKTTPPVLVSDGSFTLYSKLTVDKSRWQQGNVFSCSVMHEALHNHYTQKSLSLSPG
heavy: EVQLVESGGGLVKPGGSLRLSCAASGFTFSSYSMNWVRQAPGKGLEWVSSISSSSSYIYYADSVKGRFTISRDNAKNSLYLQMNSLRAEDTAVYYCARGAPIGAAAGWFDPWGQGTLVTVSSASTKGPSVFPLAPSSKSTSGGTAALGCLVKDYFPEPVTVSWNSGALTSGVHTFPAVLQSSGLYSLSSVVTVPSSSLGTQTYICNVNHKPSNTKVDKKVEPKSCDKTHTCPPCPAPELLGGPSVFLFPPKPKDTLMISRTPEVTCVVVDVSHEDPEVKFNWYVDGVEVHNAKTKPREEQYNSTYRVVSVLTVLHQDWLNGKEYKCKVSNKALPAPIEKTISKAKGQPREPQVCTLPPSRDELTENQVSLTCLVKGFYPSDIAVEWESNGQPENNYKTTPPVLDSDGSFFLYSWLTVDKSRWQQGNVFSCSVMHEALHNHYTQKSLSLSPG
light: DIQMTQSPSSVSASVGDRVTITCRASQGISSWLAWYQQKPGKAPKLLIYAASSLQSGVPSRFSGSGSGTDFTLTISSLQPEDFATYYCQQGVSFPRTFGGGTKVEIKRTVAAPSVFIFPPSDEQLKSGTASVVCLLNNFYPREAKVQWKVDNALQSGNSQESVTEQDSKDSTYSLSSTLTLSKADYEKHKVYACEVTHQGLSSPVTKSFNRGEC
notes: Trispecific F3' format: CLEC12A scFv-Fc paired with NKG2D Fab-Fc; Stressed and control samples of the stability studies are the same molecule; also called AB0237

Kd [6]: 0.781 µM
Kd [7]: 6 µM
Kd [8]: 0.00165 µM
koff [8]: 0.00115 s⁻¹
kon [8]: 698000 M⁻¹ s⁻¹
B2: AB0192 TriNKET (other)
chain: EVQLVESGGGVVQPGGSLRLSCAASGFTFNAFGMHWVRQAPGKCLEWVAFISSGSTSIYYANTVKGRFTISRDNSKNTLYLQMNSLRAEDTAVYYCARDGYPTGGAMDYWGQGTSVTVSSGGGGSGGGGSGGGGSGGGGSDIQMTQSPSSLSASVGDRVTITCKASQDIYNYLSWFQQKPGKAPKPLIYRANILVSGVPSRFSGSGSGQDYTFTISSLQPEDIATYYCLQFDAFPFTFGCGTKLEIKGSDKTHTCPPCPAPELLGGPSVFLFPPKPKDTLMISRTPEVTCVVVDVSHEDPEVKFNWYVDGVEVHNAKTKPREEQYNSTYRVVSVLTVLHQDWLNGKEYKCKVSNKALPAPIEKTISKAKGQPREPRVYTLPPCRDELTKNQVSLTCLVKGFYPSDIAVEWESNGQPENNYKTTPPVLVSDGSFTLYSKLTVDKSRWQQGNVFSCSVMHEALHNHYTQKSLSLSPG
heavy: EVQLVESGGGLVKPGGSLRLSCAASGFTFSSYSMNWVRQAPGKGLEWVSSISSSSSYIYYADSVKGRFTISRDNAKNSLYLQMNSLRAEDTAVYYCARGAPIGAAAGWFDPWGQGTLVTVSSASTKGPSVFPLAPSSKSTSGGTAALGCLVKDYFPEPVTVSWNSGALTSGVHTFPAVLQSSGLYSLSSVVTVPSSSLGTQTYICNVNHKPSNTKVDKKVEPKSCDKTHTCPPCPAPELLGGPSVFLFPPKPKDTLMISRTPEVTCVVVDVSHEDPEVKFNWYVDGVEVHNAKTKPREEQYNSTYRVVSVLTVLHQDWLNGKEYKCKVSNKALPAPIEKTISKAKGQPREPQVCTLPPSRDELTENQVSLTCLVKGFYPSDIAVEWESNGQPENNYKTTPPVLDSDGSFFLYSWLTVDKSRWQQGNVFSCSVMHEALHNHYTQKSLSLSPG
light: DIQMTQSPSSVSASVGDRVTITCRASQGISSWLAWYQQKPGKAPKLLIYAASSLQSGVPSRFSGSGSGTDFTLTISSLQPEDFATYYCQQGVSFPRTFGGGTKVEIKRTVAAPSVFIFPPSDEQLKSGTASVVCLLNNFYPREAKVQWKVDNALQSGNSQESVTEQDSKDSTYSLSSTLTLSKADYEKHKVYACEVTHQGLSSPVTKSFNRGEC
notes: the condition stands under assay; also called AB0192 Lot AB0192-005

Kd [9]: 0.0009 µM
Kd [10]: 0.336 µM and 0.343 µM and 0.321 µM
koff [10]: 0.0294 s⁻¹ and 0.0264 s⁻¹ and 0.0272 s⁻¹
kon [10]: 87600 M⁻¹ s⁻¹ and 77000 M⁻¹ s⁻¹ and 84600 M⁻¹ s⁻¹
koff [11]: 0.0476 s⁻¹
kon [12]: 8.87e+06 M⁻¹ s⁻¹
Kd [13]: 8.85 µM
Kd [14]: 0.349 µM
Kd [15]: 0.0015 µM
koff [16]: 0.049 s⁻¹
Kd [17]: 0.983 µM
koff [17]: 0.127 s⁻¹
kon [17]: 130000 M⁻¹ s⁻¹
B3: AB0089 TriNKET (bispecific antibody, human IgG1, kappa)
chain: QLQLQESGPGLVKPSETLSLTCTVSGFSLTNYGLHWIRQPPGKCLEWIGVIWVGGATDYNPSLKSRVTISVDTSKNQFSLKLSSVQAADTAVYYCAKGDYGDTLDYWGQGTLVTVSSGGGGSGGGGSGGGGSGGGGSDIQMTQSPSSLSASVGDRVTITCHASQNINFWLSWYQQKPGKAPKLLIYEASNLHTGVPSRFSGSGSGTDFTLTISSLQPEDFATYYCQQSHSYPLTFGCGTKLEIKGSDKTHTCPPCPAPELLGGPSVFLFPPKPKDTLMISRTPEVTCVVVDVSHEDPEVKFNWYVDGVEVHNAKTKPREEQYNSTYRVVSVLTVLHQDWLNGKEYKCKVSNKALPAPIEKTISKAKGQPREPRVYTLPPCRDELTKNQVSLTCLVKGFYPSDIAVEWESNGQPENNYKTTPPVLVSDGSFTLYSKLTVDKSRWQQGNVFSCSVMHEALHNHYTQKSLSLSPG
heavy: EVQLVESGGGLVKPGGSLRLSCAASGFTFSSYSMNWVRQAPGKGLEWVSSISSSSSYIYYADSVKGRFTISRDNAKNSLYLQMNSLRAEDTAVYYCARGAPIGAAAGWFDPWGQGTLVTVSSASTKGPSVFPLAPSSKSTSGGTAALGCLVKDYFPEPVTVSWNSGALTSGVHTFPAVLQSSGLYSLSSVVTVPSSSLGTQTYICNVNHKPSNTKVDKKVEPKSCDKTHTCPPCPAPELLGGPSVFLFPPKPKDTLMISRTPEVTCVVVDVSHEDPEVKFNWYVDGVEVHNAKTKPREEQYNSTYRVVSVLTVLHQDWLNGKEYKCKVSNKALPAPIEKTISKAKGQPREPQVCTLPPSRDELTENQVSLTCLVKGFYPSDIAVEWESNGQPENNYKTTPPVLDSDGSFFLYSWLTVDKSRWQQGNVFSCSVMHEALHNHYTQKSLSLSPG
light: DIQMTQSPSSVSASVGDRVTITCRASQGISSWLAWYQQKPGKAPKLLIYAASSLQSGVPSRFSGSGSGTDFTLTISSLQPEDFATYYCQQGVSFPRTFGGGTKVEIKRTVAAPSVFIFPPSDEQLKSGTASVVCLLNNFYPREAKVQWKVDNALQSGNSQESVTEQDSKDSTYSLSSTLTLSKADYEKHKVYACEVTHQGLSSPVTKSFNRGEC
notes: F3' format heterodimer of three chains; human IgG1 Fc with EW-RVT and Y349C/S354C mutations; also called AB0089 Lot AB0089-002; CLEC12A TriNKET AB0089
